# Patent US20170298096A1 (CANIMGUIDE THERAPEUTICS, published 2017)
# T1: His-tagged P3028 peptide (PGE73) (human)
# T1 construct: also called His-tag-P3028; not shown: His-tag
# T1 peptide: VFDEFKPLVEEPQNLIK
# Target: Artificial Cell Surface (ACS): biotinylated cell surface proteins of PBMCs bound to streptavidin columns
# Experiment: trypsin-digested dHSA adsorbed on ACS column, MALDI-TOF ms
row,Binder,Percent Absorbed [%]
1,YLYEIAR [albumin fragment YLYEIAR],34
2,QNCELFEQLGEYK [albumin fragment O…],20
3,LDELRDEGK,2
4,LCTVATLR [albumin fragment LCTVATLR],35
5,VHTECCHGDLLECADDR,13
6,NECFLQHK [albumin fragment NECFLQHK],22
7,LKECCEKPLLEK,36
8,FKDLGEENFK,8
9,RPCFSALEVDETYVPK,42
10,VPQVSTPTLVEVSR,59
11,KVPQVSTPTLVEVSR,64
12,DDNPNLPR [albumin fragment DDNPNLPR],1
13,SLHTLFGDK,36
14,VFDEFKPLVEEPQNLIK,60
15,YICENQDSISSK,3
16,CCAAADPHECYAK,32
17,CCTESLVNR,26
18,FQNALLVR [albumin fragment FQNALLVR],41
19,AAFTECCQAADK,29
20,AVMDDFAAFVEK,23
21,KYLYEIAR [albumin fragment KYLYEIAR],71

# Target: T1, His-tagged P3028 peptide (PGE73)
# Experiment: PEPSCAN ELISA; peptide on card, His-tagged P3028 in solution
# Protocol: After washing, the peroxidase substrate 2,2′-azine-di-3-ethylbenzthiazoline sulfonate (ABTS) and 2 μL of 3% H2O2 were added. The binding capacity of the mAb was measured as a color development at 405 nm (optical density, OD405). The color development was quantified with a charge-coupled device (CCD)—camera and an image processing system.
# The OD405-values obtained by a CCD-camera was considered as raw data values (“rampo values,” “rampo units,” or “rampo scores”). […] First the CCD-camera made a picture of the card before peroxidase coloring and then again a picture after the peroxidase coloring. […] These values were copied into an excel file and labeled as a raw data file. One follow-up manipulation was allowed. Sometimes a well can contain an air-bubble resulting in a false-positive value. If manual inspection of the cards detect an air-bubble the value are set to 0 for that well.
row,Binder,RAMPO Score [rampo units]
1,KKLDTFFVKLSLMTER (P28R variant on PEPSCAN card) [SEQ ID NO: 22],> 500
2,KKGDTFFVKLSLFTER (P28R variant on PEPSCAN card) [SEQ ID NO: 4],> 500
3,KKEDTFFVKLSLFTER (P28R variant on PEPSCAN card) [SEQ ID NO: 5],> 500
4,KKLDQFFVKLSLFTER (P28R variant on PEPSCAN card) [SEQ ID NO: 6],> 500
5,KKLDTFFVKLSVFTER (P28R variant on PEPSCAN card) [SEQ ID NO: 20],> 500
6,KKLDTFFVKLSMFTER (P28R variant on PEPSCAN card) [SEQ ID NO: 21],> 500
7,KKLDTFFVKLQLFTER (P28R variant on PEPSCAN card) [SEQ ID NO: 15],> 500
